Numbering of substitutions follows the chain as printed. Names and notes keep the numbering of the source.

One assay concerns the target T1, mouse CD80 (mouse, UniProt Q00609 38-306).
T1 construct: Overexpressed on IIAdL1 cells or DOdKO cells; also called mCD80
T1 sequence: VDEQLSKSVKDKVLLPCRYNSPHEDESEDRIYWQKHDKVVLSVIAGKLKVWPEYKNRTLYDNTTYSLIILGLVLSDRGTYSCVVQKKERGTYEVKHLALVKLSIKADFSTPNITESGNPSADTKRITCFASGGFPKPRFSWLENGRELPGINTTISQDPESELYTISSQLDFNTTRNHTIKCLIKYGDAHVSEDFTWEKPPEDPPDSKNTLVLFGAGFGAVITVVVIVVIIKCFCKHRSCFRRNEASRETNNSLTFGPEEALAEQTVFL
As to the kind of experiment: flow cytometry, IIAdL1 cells expressing CD80 alone, soluble PD-1-EC.

For assay [1], the target named is T2, mouse PD-L1 (mouse, UniProt Q9EP73 19-290).
T2 construct: Overexpressed on IIAdL1 cells or DOdKO cells; also called mPD-L1; CD274
Kind of assay: flow cytometry; DOdKO-mPD-L1/mCD80 cells pretreated with 10 ug/ml TKMG48 or control IgG, stained with mouse PD-1-EC; (TKMG48 treated group-control group)/(control IgG group-control group). In general terms: A flow cytometer gives signals particle by particle.

Assay [2] concerns the target T3, human PD-L1 (human, UniProt Q9NZQ7 19-290).
T3 construct: Expressed on IIAdL1 or DOdKO cells; also called hPD-L1
Kind of assay: flow cytometry; DOdKO-hPD-L1/hCD80 cells pretreated with 30 ug/mL TKMF5, stained with human PD-1-EC.

Assay [3] concerns the target T3, human PD-L1. As to the kind of experiment: co-immunoprecipitation, IIAdL1 cells expressing the human molecules, western blot. Background: Immunoblotting shows a protein as a band on a membrane.
Assay [4] concerns the target T3, human PD-L1. Kind of assay: flow cytometry; PD-1-EC staining of IIAdL1 cells (FIG. 29).
Assay [5] has as its target T3, human PD-L1. The description is as described for the mutants of Test 4; no separate experiment told for the double mutant.
The target of assay [6] is T2, mouse PD-L1. The description is as described for the mutants of Test 3; no separate experiment told for the double mutant.
The target of assay [7] is T2, mouse PD-L1. The assay is described as described for the mutants of Test 3 (PD-1-EC staining of cells co-expressing PD-L1).

T2 sequence (Q9EP73 19-290 limits assumed): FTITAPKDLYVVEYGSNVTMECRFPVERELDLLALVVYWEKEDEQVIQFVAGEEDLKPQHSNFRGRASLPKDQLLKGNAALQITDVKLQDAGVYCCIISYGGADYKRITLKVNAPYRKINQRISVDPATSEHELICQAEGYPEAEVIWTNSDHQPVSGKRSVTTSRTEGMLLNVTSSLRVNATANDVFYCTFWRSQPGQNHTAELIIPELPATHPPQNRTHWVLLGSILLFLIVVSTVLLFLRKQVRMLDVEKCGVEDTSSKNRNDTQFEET
T3 sequence (Q9NZQ7 19-290 limits assumed): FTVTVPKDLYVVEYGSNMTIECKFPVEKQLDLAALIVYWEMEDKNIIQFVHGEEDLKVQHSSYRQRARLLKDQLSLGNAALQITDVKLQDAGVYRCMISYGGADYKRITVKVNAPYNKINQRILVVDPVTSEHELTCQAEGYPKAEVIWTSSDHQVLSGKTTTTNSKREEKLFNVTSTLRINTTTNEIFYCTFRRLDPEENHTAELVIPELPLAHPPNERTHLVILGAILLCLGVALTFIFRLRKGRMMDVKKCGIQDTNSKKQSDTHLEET

B1: soluble mouse PD-1 extracellular region (PD-1-EC) protein (receptor)
chain: LEVPNGPWRSLTFYPAWLTVSEGANATFTCSLSNWSEDLMLNWNRLSPSNQTEKQAAFCNGLSQPVQDARFQIIQLPNRHDFHMNILDTRRNDSGIYLCGAISLHPKAKIEESPGAELVVTERILETSTRYPSPSPKPEGRFQDYKDDDDK
notes: domain: five-stranded coiled coil domain; Soluble chimeric protein from 293T or Plat-E culture supernatant; also called mouse PD-1-EC; mPD-1; not shown: five-stranded coiled coil domain of cartilage oligomer matrix protein (Terskikh et al. 1997), fused to the C-terminus
With B1, the binding result with mouse CD80 is “no binding”. Besides, in the assay with mouse PD-L1 [1], the “amount of binding (mean fluorescence intensity) after TKMG48 pretreatment relative to control IgG pretreatment” value is approximately 10.1 times.

B2: human PD-1-EC (receptor)
chain: LDSPDRPWNPPTFSPALLVVTEGDNATFTCSFSNTSESFVLNWYRMSPSNQTDKLAAFPEDRSQPGQDCRFRVTQLPNGRDFHMSVVRARRNDSGTYLCGAISLAPKAQIKESLRAELRVTERRAEVPTAHPSPSPRPAGQFQDYKDDDDK
notes: domain: five-stranded coiled coil domain; also called human PD-1 extracellular region soluble chimeric protein; hPD-1; not shown: five-stranded coiled coil domain of cartilage oligomer matrix protein (Terskikh et al. 1997), fused to the C-terminus
With B2, the “ratio of cells that bound to PD-1-EC” value with human PD-L1 [2] was approximately 50%.

B3: human CD80 (ligand)
chain: VIHVTKEVKEVATLSCGHNVSVEELAQTRIYWQKEKKMVLTMMSGDMNIWPEYKNRTIFDITNNLSIVILALRPSDEGTYECVVLKYEKDAFKREHLAEVTLSVKADFPTPSISDFEIPTSNIRRIICSTSGGFPEPHLSWLENGEELNAINTTVSQDPETELYAVSSKLDFNMTTNHSFMCLIKYGHLRVNQTFNWNTTKQEHFPDNLLPSWAITLISVNGIFVICCLTYCFAPRCRERRRNERLRRESVRPV
notes: Expressed on IIAdL1, DOdKO or DOdPD cells; also called hCD80
As to B3, the binding result in the assay with human PD-L1 [3] is listed as “binds”.

B4: human CD80I92E (ligand)
chain: B3 chain with I58E
As to B4, in the assay with human PD-L1 [4], the binding result is on record as “no binding”.

B5: human CD80 mutant (having I92E and L104E mutations) lacking the ability to bind to human PD-L1 (ligand)
chain: B3 chain with I58E, L70E
For B5, in the assay with human PD-L1 [5], the binding result was “no binding”.

B6: human CD80L104E mutant (ligand)
chain: B3 chain with L70E
Take B6: the binding result with human PD-L1 [4] is on record as “no binding”.

B7: mouse CD80 with the L96E and L107E mutations (ligand)
chain: T1 sequence with L59E, L70E
In the case of B7, the binding result in the assay with mouse PD-L1 [6] is listed as “no binding”.

B8: mouse CD80 with the L96E mutation (ligand)
chain: T1 sequence with L59E
notes: also called CD80 L96E
Take B8: in the assay with mouse PD-L1 [7], the binding result was “no binding”.

B9: mouse CD80L107E (ligand)
chain: T1 sequence with L70E
notes: also called L107E mutant
For the molecule B9, in the assay with mouse PD-L1 [7], the binding result is on record as “no binding”.

The record behind these values is patent US20260242482A1 (ONO PHARMACEUTICAL, published 2026).
